Laboratory results taken from patent publication US20240116985A1 (published 2024).
Values belong to the binder of their own block, whether it stands above or below them. Starred links: 1 amine or outer side, 2 acyl side, 3 side chain; linkers in the order of their positions; H or OH if unused. Positions of bridges follow the written chain, without caps; N, C: chain ends. Non-standard residues stand in square brackets, D forms with d. Primed or numbered codes have the meaning given here. *: point of attachment. PyrS2″ = (S)-3-amino-1-((pent-4-en-1-yloxy)carbonyl)pyrrolidine-3-carboxylic acid (stapling residue), C=CCCCOC(=O)N1CC[C@@](N[*:1])(C(=O)[*:2])C1; HypBzEs3OAllyl = (2R,4S)-4-((3-(allyloxy)benzoyl)oxy)pyrrolidine-2-carboxylic acid, C=CCOc1cccc(C(=O)O[C@H]2C[C@H](C(=O)[*:2])N([*:1])C2)c1; B5(17) = 2,2-bis(4-pentenyl)glycine = 2-amino-2-(pent-4-en-1-yl)hept-6-enoic acid, stitching residue, C=CCCCC(CCCC=C)(N[*:1])C(=O)[*:2]; B5(4) = 2,2-bis(4-pentenyl)glycine = 2-amino-2-(pent-4-en-1-yl)hept-6-enoic acid (stitching residue), C=CCCCC(CCCC=C)(N[*:1])C(=O)[*:2]; TfeGA = (S)-2-amino-3-((carboxymethyl)(2,2,2-trifluoroethyl)amino)propanoic acid, O=C([C@H](CN(CC(=O)[*:3])CC(F)(F)F)N[*:1])[*:2]; PyrS2 = (S)-3-amino-1-((pent-4-en-1-yloxy)carbonyl)pyrrolidine-3-carboxylic acid, C=CCCCOC(=O)N1CC[C@@](N[*:1])(C(=O)[*:2])C1; (2OxoPpz)GlnR = Glu side chain amide with 2-oxopiperazine (3-oxopiperazin-1-yl), O=C1CN(C(=O)CC[C@H](N[*:1])C(=O)[*:2])CCN1; (bismethoxyethylamine)GlnR″ = N5,N5-bis(2-methoxyethyl)-L-glutamine, COCCN(CCOC)C(=O)CC[C@H](N[*:1])C(=O)[*:2]; B5(3) = 2,2-bis(4-pentenyl)glycine (stitching residue), C=CCCCC(CCCC=C)(N[*:1])C(=O)[*:2]; B5(28) = 2,2-bis(4-pentenyl)glycine, C=CCCCC(CCCC=C)(N[*:1])C(=O)[*:2]; Phe(3-COOH) = N[C@@H](Cc1cccc(C(=O)O)c1)C(=O)O; 2F3MeF = Cc1cccc(C[C@H](N[*:1])C(=O)[*:2])c1F; Phe(3,4-F2) = N[C@@H](Cc1ccc(F)c(F)c1)C(=O)O; Phe(2-Cl) = N[C@@H](Cc1ccccc1Cl)C(=O)O; 1Nal = N[C@@H](Cc1cccc2ccccc12)C(=O)O; Bta = N[C@@H](Cc1csc2ccccc12)C(=O)O; αAllylPro = C=CC[C@@]1(C(=O)O)CCCN1; isoindolineGlnR = not defined here; tBuAla = CC(C)(C)C[C@H](N)C(=O)O; 3Pal = N[C@@H](Cc1cccnc1)C(=O)O; 3Thi = N[C@@H](Cc1ccsc1)C(=O)O; S8 = C=CCCCCCC[C@](C)(N)C(=O)O; PyrS2(4) = not defined here; Moc = COC(=O)*

Tests used:
[1] = target: T1, beta-catenin, full-length (Uniprot ID P35222) (Homo sapiens (Human), UniProt P35222 2-781); assay: fluorescence polarization competition, displacement of 5FAM-TCF4 10-53 from full-length beta-catenin
T1 construct: tags are not described; also called bCat; B-Catenin
T1 sequence: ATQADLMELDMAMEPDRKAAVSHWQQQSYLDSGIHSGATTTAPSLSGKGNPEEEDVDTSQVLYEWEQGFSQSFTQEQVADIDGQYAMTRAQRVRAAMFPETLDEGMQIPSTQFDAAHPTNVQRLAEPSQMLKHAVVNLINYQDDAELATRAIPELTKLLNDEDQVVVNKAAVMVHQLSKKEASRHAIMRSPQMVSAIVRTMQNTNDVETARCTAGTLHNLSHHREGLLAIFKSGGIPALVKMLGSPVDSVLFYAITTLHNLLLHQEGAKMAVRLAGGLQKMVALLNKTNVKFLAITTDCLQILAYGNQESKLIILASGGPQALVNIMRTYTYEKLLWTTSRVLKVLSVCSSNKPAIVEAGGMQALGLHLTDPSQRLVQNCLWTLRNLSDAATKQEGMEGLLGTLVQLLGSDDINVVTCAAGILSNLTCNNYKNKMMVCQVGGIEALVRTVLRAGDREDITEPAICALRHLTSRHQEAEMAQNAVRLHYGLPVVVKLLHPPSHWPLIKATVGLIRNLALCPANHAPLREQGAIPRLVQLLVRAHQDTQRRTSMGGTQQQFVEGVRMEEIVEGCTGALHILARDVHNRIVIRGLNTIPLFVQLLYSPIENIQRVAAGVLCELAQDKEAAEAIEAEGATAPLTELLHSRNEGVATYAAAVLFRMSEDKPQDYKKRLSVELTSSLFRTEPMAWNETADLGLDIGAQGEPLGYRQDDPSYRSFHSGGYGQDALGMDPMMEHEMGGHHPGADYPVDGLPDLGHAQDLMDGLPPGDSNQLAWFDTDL
Protocol: The plate was incubated protected from light for 60 minutes at 20° C. prior to read. Reads were performed on a CLARIOstar plate reader (BMG Labtech) in duplicate, and data were fitted to a 1:1 binding model with hill slope using an in-house script. All provided concentrations are final concentrations.

Bcat-Halo = target: T2, Bcat-Halo (UniProt P35222 1-781); assay: cell-based or functional assay
T2 sequence (looked up): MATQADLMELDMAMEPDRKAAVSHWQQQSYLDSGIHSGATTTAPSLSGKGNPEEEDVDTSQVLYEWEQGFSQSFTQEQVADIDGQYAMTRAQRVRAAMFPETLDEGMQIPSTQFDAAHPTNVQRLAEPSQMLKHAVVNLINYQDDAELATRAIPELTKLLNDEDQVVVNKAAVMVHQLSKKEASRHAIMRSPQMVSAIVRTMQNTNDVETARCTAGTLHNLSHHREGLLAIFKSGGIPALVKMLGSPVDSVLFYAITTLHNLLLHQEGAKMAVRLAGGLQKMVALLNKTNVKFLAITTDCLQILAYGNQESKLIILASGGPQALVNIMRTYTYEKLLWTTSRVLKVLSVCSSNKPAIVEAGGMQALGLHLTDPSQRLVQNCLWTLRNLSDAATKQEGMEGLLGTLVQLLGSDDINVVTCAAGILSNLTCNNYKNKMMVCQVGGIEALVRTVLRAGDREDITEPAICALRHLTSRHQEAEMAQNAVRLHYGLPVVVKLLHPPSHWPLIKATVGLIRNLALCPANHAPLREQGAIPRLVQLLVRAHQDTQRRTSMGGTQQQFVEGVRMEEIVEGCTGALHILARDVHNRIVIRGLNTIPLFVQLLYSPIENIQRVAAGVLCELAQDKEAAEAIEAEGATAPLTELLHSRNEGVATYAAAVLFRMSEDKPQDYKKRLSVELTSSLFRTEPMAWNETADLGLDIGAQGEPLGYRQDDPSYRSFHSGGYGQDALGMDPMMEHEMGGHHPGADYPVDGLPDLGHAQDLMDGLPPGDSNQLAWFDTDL

B2: I-286: Ac-PL3-Asp-Ala-B5-Asp-Asp-Ala-Ala-Phe-Ala-S8-Phe-Trp-Ala-NH2 (peptide)
peptide: XDAXDDAAFAXFWA
modifications: not fully specified; N-terminal Ac; PL3 at 1, B5 at 4, S8 at 11 (olefin-metathesis staples 1-4 and 4-11); C-terminal amide
notes: Stapled (stitched) peptide
- IC50 [1]: 4.48 µM

B4: I-267: Ac-PL3-Asp-Ala-B5-Asp-Asp-Ala-Ala-34FF-Val-S8-Phe-Trp-Gln-NH2 (peptide)
peptide: Ac-[αAllylPro]DA[B5(17)]DDAA[Phe(3,4-F2)]V[S8]FWQ-NH2
modifications: staple 1-4, 4-11
notes: Stapled (stitched) peptide
- IC50 [1]: 5 µM

B5: I-2317 (peptide)
peptide: Ac-[αAllylPro]D[tBuAla][B5(4)]D[Phe(3-COOH)][(4Pippip)GlnR]AFL[PyrS2″][2F3MeF][Bta]A-NH2
modifications: staple 1-4, 4-11
- NanoBRET Abs IC50 (Bcat-Halo): 18.8 µM

B6: I-2328 (peptide)
peptide: Ac-[HypBzEs3OAllyl]D[tBuAla][B5(3)]D[TfeGA]AAFL[PyrS2″][3Thi][Bta]Q-NH2
modifications: staple 1-4, 4-11; also: staple -CH=CH- reduced to -CH2-CH2-
- NanoBRET Abs IC50 (Bcat-Halo): > 20 µM

B7: I-2316 (peptide)
peptide: Ac-[αAllylPro]D[tBuAla][B5(4)]D[Phe(3-COOH)][(TfePpz)GlnR]AFL[PyrS2(4)][2F3MeF][Bta]A-NH2
modifications: staple 1-4, 4-11; reading uncertain; also: printed as Ac-PL3-Asp-Npg-B5-Asp-3COOHF-[TfePpz]GlnR-Ala-Phe-Leu-PyrS2-2F3MeF-BztA-Ala-NH2
- NanoBRET Abs IC50 (Bcat-Halo): 1.6 µM

B10: I-2322 (peptide)
peptide: Ac-[αAllylPro]D[tBuAla][B5(4)]D[Phe(3-COOH)][(bismethoxyethylamine)GlnR″]AFL[PyrS2″][2F3MeF][Bta]A-NH2
modifications: staple 1-4, 4-11
- NanoBRET Abs IC50 (Bcat-Halo): 1.8 µM

B11: I-2320 (peptide)
peptide: Ac-[αAllylPro]D[tBuAla][B5(28)]D[Phe(3-COOH)][isoindolineGlnR]AFL[PyrS2][2F3MeF][Bta]A-NH2
modifications: staple 1-4, 4-11; reading uncertain
- NanoBRET Abs IC50 (Bcat-Halo): 2.7 µM

B12: I-2318 (peptide)
peptide: Ac-[αAllylPro]D[tBuAla][B5(4)]D[Phe(3-COOH)][(2OxoPpz)GlnR]AFL[PyrS2″][2F3MeF][Bta]A-NH2
modifications: staple 1-4, 4-11
- NanoBRET Abs IC50 (Bcat-Halo): 1.8 µM

B14: I-276: Ac-PL3-Asp-Ala-B5-Asp-Asp-Ala-Ala-Phe-Val-S8-1NapA-Trp-Gln-NH2 (peptide)
peptide: Ac-[αAllylPro]DA[B5(4)]DDAAFV[S8][1Nal]WQ-NH2
modifications: staple 1-4, 4-11; also: later-eluting HPLC staple isomer
notes: Stapled (stitched) peptide
- IC50 [1]: 3.43 µM

The next lines start with the values.

- IC50 [1]: 1.87 µM
B1: I-292: Ac-PL3-Asp-Ala-B5-Asp-Asp-Ala-Ala-Phe-Val-S8-Phe-Trp-Ala-NH2 (peptide)
peptide: XDAXDDAAFVXFWA
modifications: not fully specified; N-terminal Ac; PL3 at 1, B5 at 4, S8 at 11 (olefin-metathesis staples 1-4 and 4-11); C-terminal amide
notes: Stapled (stitched) peptide

- IC50 [1]: 3.13 µM
B3: I-291: Ac-PL3-Asp-Ala-B5-Asp-Asp-Ala-Ala-Phe-Val-S8-Phe-Trp-Ala-NH2 (peptide)
peptide: XDAXDDAAFVXFWA
modifications: not fully specified; N-terminal Ac; PL3 at 1, B5 at 4, S8 at 11 (olefin-metathesis staples 1-4 and 4-11); C-terminal amide
notes: Stapled (stitched) peptide

- IC50 [1]: 5 µM
B8: I-275: Ac-PL3-Asp-Ala-B5-Asp-Asp-Ala-Ala-Phe-Val-S8-1NapA-Trp-Gln-NH2 (peptide)
peptide: Ac-[αAllylPro]DA[B5(4)]DDAAFV[S8][1Nal]WQ-NH2
modifications: staple 1-4, 4-11; also: earlier-eluting HPLC staple isomer
notes: Stapled (stitched) peptide

- IC50 [1]: 5 µM
B9: I-271: Ac-PL3-Asp-Ala-B5-Asp-3PyrA-Ala-Ala-Phe-Val-S8-Phe-Trp-Gln-NH2 (peptide)
peptide: Ac-[αAllylPro]DA[B5(17)]D[3Pal]AAFV[S8]FWQ-NH2
modifications: staple 1-4, 4-11
notes: Stapled (stitched) peptide

- NanoBRET Abs IC50 (Bcat-Halo): 14.8 µM
B13: I-2324 (peptide)
peptide: Moc-[αAllylPro]D[tBuAla][B5(3)]D[Phe(3-COOH)]AAFL[PyrS2″][Phe(2-Cl)][Bta]A-NH2
modifications: staple 1-4, 4-11
